Values quoted from earlier work, collected in paper PMC3798119.
pKd: −log10 of the molar value.

Molecular target: basigin (CD147) (Homo sapiens) (UniProt P35613)
Chain of UniProt P35613 (P35613 22-325): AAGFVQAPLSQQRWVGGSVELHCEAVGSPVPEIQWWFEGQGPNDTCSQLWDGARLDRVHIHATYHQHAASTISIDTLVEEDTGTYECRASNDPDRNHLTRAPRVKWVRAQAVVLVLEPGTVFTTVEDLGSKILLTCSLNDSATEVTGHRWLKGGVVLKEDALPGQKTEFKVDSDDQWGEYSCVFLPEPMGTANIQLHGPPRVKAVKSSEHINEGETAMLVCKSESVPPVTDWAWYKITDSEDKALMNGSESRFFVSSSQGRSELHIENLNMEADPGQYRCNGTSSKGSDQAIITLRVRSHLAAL

RH5 (from UniProt Q8IFM5)
pKd: 5.96
